Measured values published in patent publication US20230151095A1 (published 2023).

Molecular target: CD16 (UniProt P08637 17-208)
Sequence (P08637 17-208): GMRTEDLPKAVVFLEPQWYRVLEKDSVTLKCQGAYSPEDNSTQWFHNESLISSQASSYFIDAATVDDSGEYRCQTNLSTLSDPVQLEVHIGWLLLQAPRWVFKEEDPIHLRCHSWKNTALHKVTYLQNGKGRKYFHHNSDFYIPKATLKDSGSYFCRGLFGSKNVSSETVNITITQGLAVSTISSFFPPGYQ

Binder | Kd [µM]
XENP41035 (antibody) chain 1: EVQLLESGGGLVQPGGSLRLSCAVSGFSLSSYGVIWVRQAPGKGLEYVSWVSSGGSTNYASSVKGRFTISRDTSKNTVYLQMNSLRAEDTAVYFCARGATNSGTDIWGPGTLVTVSSASTKGPSVFPLAPSSKSTSGGTAALGCLVKDYFPEPVTVSWNSGALTSGVHTFPAVLQSSGLYSLSSVVTVPSSSLGTQTYICNVNHKPSDTKVDKKVEPKSCDKTHTCPPCPAPELLGGPDVFLFPPKPKDTLMISRTPEVTCVVVDVSHEDPEVKFNWYVDGVEVHNAKTKPREEEYNSTYRVVSVLTVLHQDWLNGKEYKCKVSNKALPAPIEKTISKAKGQPREPQVYTLPPSREEMTKNQVSLTCDVSGFYPSDIAVEWESDGQPENNYKTTPPVLDSDGSFFLYSKLTVDKSRWEQGDVFSCSVMHEALHNHYTQKSLSLSPGK chain 2: EVQLLESGGGLVQPGGSLRLSCAVSGFSLSSYGVIWVRQAPGKGLEYVSWVSSGGSTNYASSVKGRFTISRDTSKNTVYLQMNSLRAEDTAVYFCARGATNSGTDIWGPGTLVTVSSGKPGSGKPGSGKPGSGKPGSDIVMTQSPSSLSASVGDRVTITCRASQSINSWLSWYQQKPGKPPKLLIYGASNLASGVPSRFKGSGSGTDFTLTISSLQPEDFATYYCQNNYGIIAAGATFGGGTKVEIKEPKSSDKTHTCPPCPAPELLGGPSVFLFPPKPKDTLMISRTPEVTCVVVDVSHEDPEVKFNWYVDGVEVHNAKTKPREEQYNSTYRVVSVLTVLHQDWLNGKEYKCKVSNKALPAPEEKTISKAKGQPREPQVYTLPPSREQMTKNQVKLTCLVKGFYPSDIAVEWESNGQPENNYKTTPPVLDSDGSFFLYSKLTVDKSRWQQGNVFSCSVMHEALHNHYTQKSLSLSPGK chain 3: DIVMTQSPSSLSASVGDRVTITCRASQSINSWLSWYQQKPGKPPKLLIYGASNLASGVPSRFKGSGSGTDFTLTISSLQPEDFATYYCQNNYGIIAAGATFGGGTKVEIKRTVAAPSVFIFPPSDEQLKSGTASVVCLLNNFYPREAKVQWKVDNALQSGNSQESVTEQDSKDSTYSLSSTLTLSKADYEKHKVYACEVTHQGLSSPVTKSFNRGEC | 0.1
XENP41028 (antibody) chain 1: EVQLLESGGGLVQPGGSLRLSCAVSGFSLSSYGVIWVRQAPGKGLEYVSWVSSGGSTNYASSVKGRFTISRDTSKNTVYLQMNSLRAEDTAVYFCARGATNSGTDIWGPGTLVTVSSASTKGPSVFPLAPSSKSTSGGTAALGCLVKDYFPEPVTVSWNSGALTSGVHTFPAVLQSSGLYSLSSVVTVPSSSLGTQTYICNVNHKPSDTKVDKKVEPKSCDKTHTCPPCPAPELLGGPDVFLFPPKPKDTLMISRTPEVTCVVVDVSHEDPEVKFNWYVDGVEVHNAKTKPREEEYNSTYRVVSVLTVLHQDWLNGKEYKCKVSNKALPAPEEKTISKAKGQPREPQVYTLPPSREEMTKNQVSLTCDVSGFYPSDIAVEWESDGQPENNYKTTPPVLDSDGSFFLYSKLTVDKSRWEQGDVFSCSVMHEALHNHYTQKSLSLSPGK chain 2: not shown chain 3: DIVMTQSPSSLSASVGDRVTITCRASQSINSWLSWYQQKPGKPPKLLIYGASNLASGVPSRFKGSGSGTDFTLTISSLQPEDFATYYCQNNYGIIAAGATFGGGTKVEIKRTVAAPSVFIFPPSDEQLKSGTASVVCLLNNFYPREAKVQWKVDNALQSGNSQESVTEQDSKDSTYSLSSTLTLSKADYEKHKVYACEVTHQGLSSPVTKSFNRGEC | 0.12
XENP41034 (antibody) chain 1: EVQLLESGGGLVQPGGSLRLSCAVSGFSLSSYGVIWVRQAPGKGLEYVSWVSSGGSTNYASSVKGRFTISRDTSKNTVYLQMNSLRAEDTAVYFCARGATNSGTDIWGPGTLVTVSSASTKGPSVFPLAPSSKSTSGGTAALGCLVKDYFPEPVTVSWNSGALTSGVHTFPAVLQSSGLYSLSSVVTVPSSSLGTQTYICNVNHKPSDTKVDKKVEPKSCDKTHTCPPCPAPELLGGPSVFLFPPKPKDTLMISRTPEVTCVVVDVSHEDPEVKFNWYVDGVEVHNAKTKPREEEYNSTYRVVSVLTVLHQDWLNGKEYKCKVSNKALPAPEEKTISKAKGQPREPQVYTLPPSREEMTKNQVSLTCDVSGFYPSDIAVEWESDGQPENNYKTTPPVLDSDGSFFLYSKLTVDKSRWEQGDVFSCSVMHEALHNHYTQKSLSLSPGK chain 2: EVQLLESGGGLVQPGGSLRLSCAVSGFSLSSYGVIWVRQAPGKGLEYVSWVSSGGSTNYASSVKGRFTISRDTSKNTVYLQMNSLRAEDTAVYFCARGATNSGTDIWGPGTLVTVSSGKPGSGKPGSGKPGSGKPGSDIVMTQSPSSLSASVGDRVTITCRASQSINSWLSWYQQKPGKPPKLLIYGASNLASGVPSRFKGSGSGTDFTLTISSLQPEDFATYYCQNNYGIIAAGATFGGGTKVEIKEPKSSDKTHTCPPCPAPELLGGPDVFLFPPKPKDTLMISRTPEVTCVVVDVSHEDPEVKFNWYVDGVEVHNAKTKPREEQYNSTYRVVSVLTVLHQDWLNGKEYKCKVSNKALPAPEEKTISKAKGQPREPQVYTLPPSREQMTKNQVKLTCLVKGFYPSDIAVEWESNGQPENNYKTTPPVLDSDGSFFLYSKLTVDKSRWQQGNVFSCSVMHEALHNHYTQKSLSLSPGK chain 3: DIVMTQSPSSLSASVGDRVTITCRASQSINSWLSWYQQKPGKPPKLLIYGASNLASGVPSRFKGSGSGTDFTLTISSLQPEDFATYYCQNNYGIIAAGATFGGGTKVEIKRTVAAPSVFIFPPSDEQLKSGTASVVCLLNNFYPREAKVQWKVDNALQSGNSQESVTEQDSKDSTYSLSSTLTLSKADYEKHKVYACEVTHQGLSSPVTKSFNRGEC | 0.0646
XENP41031 (antibody) chain 1: EVQLLESGGGLVQPGGSLRLSCAVSGFSLSSYGVIWVRQAPGKGLEYVSWVSSGGSTNYASSVKGRFTISRDTSKNTVYLQMNSLRAEDTAVYFCARGATNSGTDIWGPGTLVTVSSASTKGPSVFPLAPSSKSTSGGTAALGCLVKDYFPEPVTVSWNSGALTSGVHTFPAVLQSSGLYSLSSVVTVPSSSLGTQTYICNVNHKPSDTKVDKKVEPKSCDKTHTCPPCPAPELLGGPDVFLFPPKPKDTLMISRTPEVTCVVVDVSHEDPEVKFNWYVDGVEVHNAKTKPREEEYNSTYRVVSVLTVLHQDWLNGKEYKCKVSNKALPAPEEKTISKAKGQPREPQVYTLPPSREEMTKNQVSLTCDVSGFYPSDIAVEWESDGQPENNYKTTPPVLDSDGSFFLYSKLTVDKSRWEQGDVFSCSVMHEALHNHYTQKSLSLSPGK chain 2: EVQLLESGGGLVQPGGSLRLSCAVSGFSLSSYGVIWVRQAPGKGLEYVSWVSSGGSTNYASSVKGRFTISRDTSKNTVYLQMNSLRAEDTAVYFCARGATNSGTDIWGPGTLVTVSSGKPGSGKPGSGKPGSGKPGSDIVMTQSPSSLSASVGDRVTITCRASQSINSWLSWYQQKPGKPPKLLIYGASNLASGVPSRFKGSGSGTDFTLTISSLQPEDFATYYCQNNYGIIAAGATFGGGTKVEIKEPKSSDKTHTCPPCPAPELLGGPDVFLFPPKPKDTLMISRTPEVTCVVVDVSHEDPEVKFNWYVDGVEVHNAKTKPREEQYNSTYRVVSVLTVLHQDWLNGKEYKCKVSNKALPAPIEKTISKAKGQPREPQVYTLPPSREQMTKNQVKLTCLVKGFYPSDIAVEWESNGQPENNYKTTPPVLDSDGSFFLYSKLTVDKSRWQQGNVFSCSVMHEALHNHYTQKSLSLSPGK chain 3: DIVMTQSPSSLSASVGDRVTITCRASQSINSWLSWYQQKPGKPPKLLIYGASNLASGVPSRFKGSGSGTDFTLTISSLQPEDFATYYCQNNYGIIAAGATFGGGTKVEIKRTVAAPSVFIFPPSDEQLKSGTASVVCLLNNFYPREAKVQWKVDNALQSGNSQESVTEQDSKDSTYSLSSTLTLSKADYEKHKVYACEVTHQGLSSPVTKSFNRGEC | 0.0552
XENP41033 (antibody) chain 1: EVQLLESGGGLVQPGGSLRLSCAVSGFSLSSYGVIWVRQAPGKGLEYVSWVSSGGSTNYASSVKGRFTISRDTSKNTVYLQMNSLRAEDTAVYFCARGATNSGTDIWGPGTLVTVSSASTKGPSVFPLAPSSKSTSGGTAALGCLVKDYFPEPVTVSWNSGALTSGVHTFPAVLQSSGLYSLSSVVTVPSSSLGTQTYICNVNHKPSDTKVDKKVEPKSCDKTHTCPPCPAPELLGGPDVFLFPPKPKDTLMISRTPEVTCVVVDVSHEDPEVKFNWYVDGVEVHNAKTKPREEEYNSTYRVVSVLTVLHQDWLNGKEYKCKVSNKALPAPIEKTISKAKGQPREPQVYTLPPSREEMTKNQVSLTCDVSGFYPSDIAVEWESDGQPENNYKTTPPVLDSDGSFFLYSKLTVDKSRWEQGDVFSCSVMHEALHNHYTQKSLSLSPGK chain 2: EVQLLESGGGLVQPGGSLRLSCAVSGFSLSSYGVIWVRQAPGKGLEYVSWVSSGGSTNYASSVKGRFTISRDTSKNTVYLQMNSLRAEDTAVYFCARGATNSGTDIWGPGTLVTVSSGKPGSGKPGSGKPGSGKPGSDIVMTQSPSSLSASVGDRVTITCRASQSINSWLSWYQQKPGKPPKLLIYGASNLASGVPSRFKGSGSGTDFTLTISSLQPEDFATYYCQNNYGIIAAGATFGGGTKVEIKEPKSSDKTHTCPPCPAPELLGGPDVFLFPPKPKDTLMISRTPEVTCVVVDVSHEDPEVKFNWYVDGVEVHNAKTKPREEQYNSTYRVVSVLTVLHQDWLNGKEYKCKVSNKALPAPEEKTISKAKGQPREPQVYTLPPSREQMTKNQVKLTCLVKGFYPSDIAVEWESNGQPENNYKTTPPVLDSDGSFFLYSKLTVDKSRWQQGNVFSCSVMHEALHNHYTQKSLSLSPGK chain 3: DIVMTQSPSSLSASVGDRVTITCRASQSINSWLSWYQQKPGKPPKLLIYGASNLASGVPSRFKGSGSGTDFTLTISSLQPEDFATYYCQNNYGIIAAGATFGGGTKVEIKRTVAAPSVFIFPPSDEQLKSGTASVVCLLNNFYPREAKVQWKVDNALQSGNSQESVTEQDSKDSTYSLSSTLTLSKADYEKHKVYACEVTHQGLSSPVTKSFNRGEC | 0.0599
XENP41021 (antibody) chain 1: EVQLLESGGGLVQPGGSLRLSCAVSGFSLSSYGVIWVRQAPGKGLEYVSWVSSGGSTNYASSVKGRFTISRDTSKNTVYLQMNSLRAEDTAVYFCARGATNSGTDIWGPGTLVTVSSASTKGPSVFPLAPSSKSTSGGTAALGCLVKDYFPEPVTVSWNSGALTSGVHTFPAVLQSSGLYSLSSVVTVPSSSLGTQTYICNVNHKPSDTKVDKKVEPKSCDKTHTCPPCPAPELLGGPSVFLFPPKPKDTLMISRTPEVTCVVVDVSHEDPEVKFNWYVDGVEVHNAKTKPREEEYNSTYRVVSVLTVLHQDWLNGKEYKCKVSNKALPAPIEKTISKAKGQPREPQVYTLPPSREEMTKNQVSLTCDVSGFYPSDIAVEWESDGQPENNYKTTPPVLDSDGSFFLYSKLTVDKSRWEQGDVFSCSVMHEALHNHYTQKSLSLSPGK chain 2: not shown chain 3: DIVMTQSPSSLSASVGDRVTITCRASQSINSWLSWYQQKPGKPPKLLIYGASNLASGVPSRFKGSGSGTDFTLTISSLQPEDFATYYCQNNYGIIAAGATFGGGTKVEIKRTVAAPSVFIFPPSDEQLKSGTASVVCLLNNFYPREAKVQWKVDNALQSGNSQESVTEQDSKDSTYSLSSTLTLSKADYEKHKVYACEVTHQGLSSPVTKSFNRGEC | 0.417
